The text below walks through data of article PMC3042988, “The activation mechanism of Irga6, an interferon-inducible GTPase contributing to mouse resistance against Toxoplasma gondii” (BMC Biology, 2011).

Sequences and labels used below:
B1: Irga6 (IIGP1), wild type, recombinant, GST cleaved off (enzyme, mouse)
chain: MGQLFSSPKSDENNDLPSSFTGYFKKFNTGRKIISQEILNLIELRMRKGNIQLTNSAISDALKEIDSSVLNVAVTGETGSGKSSFINTLRGIGNEEEGAAKTGVVEVTMERHPYKHPNIPNVVFWDLPGIGSTNFPPNTYLEKMKFYEYDFFIIISATRFKKNDIDIAKAISMMKKEFYFVRTKVDSDITNEADGKPQTFDKEKVLQDIRLNCVNTFRENGIAEPPIFLLSNKNVCHYDFPVLMDKLISDLPIYKRHNFMVSLPNITDSVIEKKRQFLKQRIWLEGFAADLVNIIPSLTFLLDSDLETLKKSMKFYRTVFGVDETSLQRLARDWEIEVDQVEAMIKSPAVFKPTDEETIQERLSRYIQEFCLANGYLLPKNSFLKEIFYLKYYFLDMVTEDAKTLLKEICL
notes: Irga6 (IIGP1), mouse immunity-related GTPase; also called WT Irga6; source: E. coli BL21, purified (glutathione Sepharose, GST cleaved off with thrombin, Superdex 75); not shown: GST, N-terminal, cleaved
B2: Irga6-E106N (enzyme, mouse)
chain: MGQLFSSPKSDENNDLPSSFTGYFKKFNTGRKIISQEILNLIELRMRKGNIQLTNSAISDALKEIDSSVLNVAVTGETGSGKSSFINTLRGIGNEEEGAAKTGVVNVTMERHPYKHPNIPNVVFWDLPGIGSTNFPPNTYLEKMKFYEYDFFIIISATRFKKNDIDIAKAISMMKKEFYFVRTKVDSDITNEADGKPQTFDKEKVLQDIRLNCVNTFRENGIAEPPIFLLSNKNVCHYDFPVLMDKLISDLPIYKRHNFMVSLPNITDSVIEKKRQFLKQRIWLEGFAADLVNIIPSLTFLLDSDLETLKKSMKFYRTVFGVDETSLQRLARDWEIEVDQVEAMIKSPAVFKPTDEETIQERLSRYIQEFCLANGYLLPKNSFLKEIFYLKYYFLDMVTEDAKTLLKEICL
notes: Irga6 (IIGP1), mouse; mutant made in pGEX-4T-2-Irga6; source: E. coli BL21, purified (glutathione Sepharose, GST cleaved off with thrombin, Superdex 75); not shown: GST, N-terminal, cleaved
B3: Irga6-D186N (enzyme, mouse)
chain: MGQLFSSPKSDENNDLPSSFTGYFKKFNTGRKIISQEILNLIELRMRKGNIQLTNSAISDALKEIDSSVLNVAVTGETGSGKSSFINTLRGIGNEEEGAAKTGVVEVTMERHPYKHPNIPNVVFWDLPGIGSTNFPPNTYLEKMKFYEYDFFIIISATRFKKNDIDIAKAISMMKKEFYFVRTKVNSDITNEADGKPQTFDKEKVLQDIRLNCVNTFRENGIAEPPIFLLSNKNVCHYDFPVLMDKLISDLPIYKRHNFMVSLPNITDSVIEKKRQFLKQRIWLEGFAADLVNIIPSLTFLLDSDLETLKKSMKFYRTVFGVDETSLQRLARDWEIEVDQVEAMIKSPAVFKPTDEETIQERLSRYIQEFCLANGYLLPKNSFLKEIFYLKYYFLDMVTEDAKTLLKEICL
notes: Irga6 (IIGP1), mouse; mutant made in pGEX-4T-2-Irga6; also called G4-motif mutant; source: E. coli BL21, purified (glutathione Sepharose, GST cleaved off with thrombin, Superdex 75); not shown: GST, N-terminal, cleaved
B4: Irga6-E106Q (enzyme, mouse)
chain: MGQLFSSPKSDENNDLPSSFTGYFKKFNTGRKIISQEILNLIELRMRKGNIQLTNSAISDALKEIDSSVLNVAVTGETGSGKSSFINTLRGIGNEEEGAAKTGVVQVTMERHPYKHPNIPNVVFWDLPGIGSTNFPPNTYLEKMKFYEYDFFIIISATRFKKNDIDIAKAISMMKKEFYFVRTKVDSDITNEADGKPQTFDKEKVLQDIRLNCVNTFRENGIAEPPIFLLSNKNVCHYDFPVLMDKLISDLPIYKRHNFMVSLPNITDSVIEKKRQFLKQRIWLEGFAADLVNIIPSLTFLLDSDLETLKKSMKFYRTVFGVDETSLQRLARDWEIEVDQVEAMIKSPAVFKPTDEETIQERLSRYIQEFCLANGYLLPKNSFLKEIFYLKYYFLDMVTEDAKTLLKEICL
notes: as for B2
B5: Irga6-K169E (enzyme, mouse)
chain: MGQLFSSPKSDENNDLPSSFTGYFKKFNTGRKIISQEILNLIELRMRKGNIQLTNSAISDALKEIDSSVLNVAVTGETGSGKSSFINTLRGIGNEEEGAAKTGVVEVTMERHPYKHPNIPNVVFWDLPGIGSTNFPPNTYLEKMKFYEYDFFIIISATRFKKNDIDIAEAISMMKKEFYFVRTKVDSDITNEADGKPQTFDKEKVLQDIRLNCVNTFRENGIAEPPIFLLSNKNVCHYDFPVLMDKLISDLPIYKRHNFMVSLPNITDSVIEKKRQFLKQRIWLEGFAADLVNIIPSLTFLLDSDLETLKKSMKFYRTVFGVDETSLQRLARDWEIEVDQVEAMIKSPAVFKPTDEETIQERLSRYIQEFCLANGYLLPKNSFLKEIFYLKYYFLDMVTEDAKTLLKEICL
notes: Irga6 (IIGP1), mouse; mutant made in pGEX-4T-2-Irga6; not shown: GST, N-terminal, cleaved
B6: Irga6-R210E (enzyme, mouse)
chain: MGQLFSSPKSDENNDLPSSFTGYFKKFNTGRKIISQEILNLIELRMRKGNIQLTNSAISDALKEIDSSVLNVAVTGETGSGKSSFINTLRGIGNEEEGAAKTGVVEVTMERHPYKHPNIPNVVFWDLPGIGSTNFPPNTYLEKMKFYEYDFFIIISATRFKKNDIDIAKAISMMKKEFYFVRTKVDSDITNEADGKPQTFDKEKVLQDIELNCVNTFRENGIAEPPIFLLSNKNVCHYDFPVLMDKLISDLPIYKRHNFMVSLPNITDSVIEKKRQFLKQRIWLEGFAADLVNIIPSLTFLLDSDLETLKKSMKFYRTVFGVDETSLQRLARDWEIEVDQVEAMIKSPAVFKPTDEETIQERLSRYIQEFCLANGYLLPKNSFLKEIFYLKYYFLDMVTEDAKTLLKEICL
notes: as for B5
B7: Irga6-K176E (enzyme, mouse)
chain: MGQLFSSPKSDENNDLPSSFTGYFKKFNTGRKIISQEILNLIELRMRKGNIQLTNSAISDALKEIDSSVLNVAVTGETGSGKSSFINTLRGIGNEEEGAAKTGVVEVTMERHPYKHPNIPNVVFWDLPGIGSTNFPPNTYLEKMKFYEYDFFIIISATRFKKNDIDIAKAISMMKEEFYFVRTKVDSDITNEADGKPQTFDKEKVLQDIRLNCVNTFRENGIAEPPIFLLSNKNVCHYDFPVLMDKLISDLPIYKRHNFMVSLPNITDSVIEKKRQFLKQRIWLEGFAADLVNIIPSLTFLLDSDLETLKKSMKFYRTVFGVDETSLQRLARDWEIEVDQVEAMIKSPAVFKPTDEETIQERLSRYIQEFCLANGYLLPKNSFLKEIFYLKYYFLDMVTEDAKTLLKEICL
notes: as for B5
B8: Irga6-E106A (enzyme, mouse)
chain: MGQLFSSPKSDENNDLPSSFTGYFKKFNTGRKIISQEILNLIELRMRKGNIQLTNSAISDALKEIDSSVLNVAVTGETGSGKSSFINTLRGIGNEEEGAAKTGVVAVTMERHPYKHPNIPNVVFWDLPGIGSTNFPPNTYLEKMKFYEYDFFIIISATRFKKNDIDIAKAISMMKKEFYFVRTKVDSDITNEADGKPQTFDKEKVLQDIRLNCVNTFRENGIAEPPIFLLSNKNVCHYDFPVLMDKLISDLPIYKRHNFMVSLPNITDSVIEKKRQFLKQRIWLEGFAADLVNIIPSLTFLLDSDLETLKKSMKFYRTVFGVDETSLQRLARDWEIEVDQVEAMIKSPAVFKPTDEETIQERLSRYIQEFCLANGYLLPKNSFLKEIFYLKYYFLDMVTEDAKTLLKEICL
notes: as for B2
B9: Irga6-K246E (enzyme, mouse)
chain: MGQLFSSPKSDENNDLPSSFTGYFKKFNTGRKIISQEILNLIELRMRKGNIQLTNSAISDALKEIDSSVLNVAVTGETGSGKSSFINTLRGIGNEEEGAAKTGVVEVTMERHPYKHPNIPNVVFWDLPGIGSTNFPPNTYLEKMKFYEYDFFIIISATRFKKNDIDIAKAISMMKKEFYFVRTKVDSDITNEADGKPQTFDKEKVLQDIRLNCVNTFRENGIAEPPIFLLSNKNVCHYDFPVLMDELISDLPIYKRHNFMVSLPNITDSVIEKKRQFLKQRIWLEGFAADLVNIIPSLTFLLDSDLETLKKSMKFYRTVFGVDETSLQRLARDWEIEVDQVEAMIKSPAVFKPTDEETIQERLSRYIQEFCLANGYLLPKNSFLKEIFYLKYYFLDMVTEDAKTLLKEICL
notes: as for B5
B10: Irga6 with Lys101 mutated to glutamate (enzyme, mouse)
chain: MGQLFSSPKSDENNDLPSSFTGYFKKFNTGRKIISQEILNLIELRMRKGNIQLTNSAISDALKEIDSSVLNVAVTGETGSGKSSFINTLRGIGNEEEGAAETGVVEVTMERHPYKHPNIPNVVFWDLPGIGSTNFPPNTYLEKMKFYEYDFFIIISATRFKKNDIDIAKAISMMKKEFYFVRTKVDSDITNEADGKPQTFDKEKVLQDIRLNCVNTFRENGIAEPPIFLLSNKNVCHYDFPVLMDKLISDLPIYKRHNFMVSLPNITDSVIEKKRQFLKQRIWLEGFAADLVNIIPSLTFLLDSDLETLKKSMKFYRTVFGVDETSLQRLARDWEIEVDQVEAMIKSPAVFKPTDEETIQERLSRYIQEFCLANGYLLPKNSFLKEIFYLKYYFLDMVTEDAKTLLKEICL
notes: Irga6 (IIGP1), mouse; mutant made in pGEX-4T-2-Irga6; also called Lys101 mutant; K101E; source: E. coli BL21, purified (glutathione Sepharose, GST cleaved off with thrombin, Superdex 75); not shown: GST, N-terminal, cleaved
B11: Irga6-E106D (enzyme, mouse)
chain: MGQLFSSPKSDENNDLPSSFTGYFKKFNTGRKIISQEILNLIELRMRKGNIQLTNSAISDALKEIDSSVLNVAVTGETGSGKSSFINTLRGIGNEEEGAAKTGVVDVTMERHPYKHPNIPNVVFWDLPGIGSTNFPPNTYLEKMKFYEYDFFIIISATRFKKNDIDIAKAISMMKKEFYFVRTKVDSDITNEADGKPQTFDKEKVLQDIRLNCVNTFRENGIAEPPIFLLSNKNVCHYDFPVLMDKLISDLPIYKRHNFMVSLPNITDSVIEKKRQFLKQRIWLEGFAADLVNIIPSLTFLLDSDLETLKKSMKFYRTVFGVDETSLQRLARDWEIEVDQVEAMIKSPAVFKPTDEETIQERLSRYIQEFCLANGYLLPKNSFLKEIFYLKYYFLDMVTEDAKTLLKEICL
notes: as for B2
B12: Irga6-R31E-K32E (enzyme, mouse)
chain: MGQLFSSPKSDENNDLPSSFTGYFKKFNTGEEIISQEILNLIELRMRKGNIQLTNSAISDALKEIDSSVLNVAVTGETGSGKSSFINTLRGIGNEEEGAAKTGVVEVTMERHPYKHPNIPNVVFWDLPGIGSTNFPPNTYLEKMKFYEYDFFIIISATRFKKNDIDIAKAISMMKKEFYFVRTKVDSDITNEADGKPQTFDKEKVLQDIRLNCVNTFRENGIAEPPIFLLSNKNVCHYDFPVLMDKLISDLPIYKRHNFMVSLPNITDSVIEKKRQFLKQRIWLEGFAADLVNIIPSLTFLLDSDLETLKKSMKFYRTVFGVDETSLQRLARDWEIEVDQVEAMIKSPAVFKPTDEETIQERLSRYIQEFCLANGYLLPKNSFLKEIFYLKYYFLDMVTEDAKTLLKEICL
notes: Irga6 (IIGP1), mouse; mutant made in pGEX-4T-2-Irga6; also called Arg31, Lys32 mutant; not shown: GST, N-terminal, cleaved

The data set concerns the molecule itself. Put plainly: light scattering; self-association (oligomerisation) of 80 μM Irga6 with 10 mM GTP at 37°C; B1 buffer (50 mM Tris/HCl pH 7.4, 5 mM MgCl2)/2 mM DTT; conventional light scattering at 350 or 600 nm.
As for B1, the binding result is given as “binds”.

Regarding B2, the binding result is listed as “binds”. For the protein B3, the binding result is “binds”. The result for B4 reads “binds”. As for B5, the entry is “binds”. As for B6, the entry is “binds”; as for B7, “binds”; as for B8, “binds”. For B9, the binding result is “binds”. Consider B10, for which the binding result is “binds”. Take B11: the binding result is recorded as “binds”.

Regarding B12, the binding result is recorded as “binds”.
